Test results: patent publication US20160369010A1 (AstraZeneca / MedImmune, published 2016)
Where a chain is given by its changes, count along the chain named.

How the values were obtained:
[1] = target: T1, Recombinant human Avi_PCSK9_Flag_His (human, UniProt Q8NBP7 31-692, biotinylated in the HTRF and LDL-R competition assays); assay: HTRF epitope competition: unlabelled compound titrated against a DyLight 650-labelled anti-PCSK9 antibody for biotinylated human PCSK9; % specific binding [panel C]
T1 construct: In-house protein; also called human PCSK9; huPCSK9
Protocol: (§1) PCSK9 activity of each peptide-antibody fusions was assessed using Homogenous Time Resolved Fluorescence (HTRF) epitope competition assays.
(§2) For the assay all samples and reagents were prepared in assay buffer containing 1X Phosphate Buffered Saline, 0.1% BSA (Sigma A9576) and 0.4M Potassium Fluoride. Test samples of peptide-antibody fusions or control antibodies were prepared in 384 well polypropylene plates by 3-fold serial dilutions. […] Delta F% was then calculated using the following equation.

[2] = target: T1, Recombinant human Avi_PCSK9_Flag_His; assay: HTRF epitope competition: unlabelled compound titrated against a DyLight 650-labelled anti-PCSK9 antibody for biotinylated human PCSK9; % specific binding [panel B]
Protocol: as §1, §2

human GLP-1 receptor = human GLP-1 receptor (human, UniProt P43220 24-463); assay: cell-based or functional assay
[3] = target: T1, Recombinant human Avi_PCSK9_Flag_His; assay: SPR (Biacore 2000)
[4] = target: T2, Flag/His tagged human CD86 (in-house) (human, UniProt P42081 24-247, limits assumed); assay: DELFIA TRF, antigen coated at 10 µg/mL
T2 sequence (looked up): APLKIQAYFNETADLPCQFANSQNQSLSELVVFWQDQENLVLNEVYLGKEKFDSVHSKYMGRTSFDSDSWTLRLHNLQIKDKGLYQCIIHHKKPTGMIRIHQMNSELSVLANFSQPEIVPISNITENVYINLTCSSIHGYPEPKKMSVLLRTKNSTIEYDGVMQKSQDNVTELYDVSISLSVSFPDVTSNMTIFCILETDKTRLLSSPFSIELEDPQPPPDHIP

[5] = target: T1, Recombinant human Avi_PCSK9_Flag_His; assay: HTRF epitope competition: unlabelled compound titrated against a DyLight 650-labelled anti-PCSK9 antibody for biotinylated human PCSK9; % specific binding [panel B]; remark: listed apart in the source
Protocol: as §1, §2

[6] = target: T1, Recombinant human Avi_PCSK9_Flag_His; assay: binding ELISA on coated human PCSK9 (10 ug/mL), single concentration, detection with cryptate labelled Fc specific anti human IgG

Sequence of human GLP-1 receptor (P43220 24-463): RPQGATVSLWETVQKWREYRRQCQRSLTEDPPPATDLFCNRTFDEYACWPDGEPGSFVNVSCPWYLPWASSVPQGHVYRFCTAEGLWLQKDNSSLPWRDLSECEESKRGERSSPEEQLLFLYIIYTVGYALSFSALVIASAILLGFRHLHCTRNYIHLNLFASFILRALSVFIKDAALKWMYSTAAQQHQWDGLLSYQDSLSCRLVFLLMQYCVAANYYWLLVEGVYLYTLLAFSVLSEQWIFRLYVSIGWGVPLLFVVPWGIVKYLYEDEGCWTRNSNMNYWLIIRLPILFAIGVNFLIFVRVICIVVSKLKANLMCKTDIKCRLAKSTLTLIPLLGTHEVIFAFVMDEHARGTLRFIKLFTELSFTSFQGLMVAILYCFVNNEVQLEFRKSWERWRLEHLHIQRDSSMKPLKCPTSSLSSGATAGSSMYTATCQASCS

B1: PC9#3 GLP-1 analogue heavy chain fusion (antibody, IgG1)
VH: HGEGTFTSDVSSYLEEQAAKEFIAWLVKGGGGGGGSGGGGSGGGGSAEVQLVESGGGLVQPGGSLRLSCAASGFTFNNYAMNWVRQAPGKGLDWVSTISGSGGTTNYADSVKGRFIISRDSSKHTLYLQMNSLRAEDTAVYYCAKDSNWGNFDLWGRGTLVTVSS
VL: not shown
notes: IgG1-TM; descriptive name; also called heavy chain peptide antibody fusion of PC9#3
IC50 (read off the curve) [1]: ~90 pM

B2: PC9#2_GLP-1_VL (antibody, IgG1)
VH: QVQLVQSGAEVKKPGASVKVSCKASGYTFTSYYMHWVRQAPGQGLEWMGEIHPSGGRTNYNEKFKSRVTMTRDTSTSTVYMELSSLRSEDTAVYYCARERPLYASDLWGQGTTVTVSS
VL: HGEGTFTSDVSSYLEEQAAKEFIAWLVKGGGGGGGSGGGGSGGGGSADIQMTQSPSSLSASVGDRVTITCKASQDVHTAVAWYQQKPGKAPKLLIYHASYRYTGVPSRFSGSGSGTDFTFTISSLQPEDIATYYCQQRYSLWRTFGQGTKLEIK
notes: IgG1-TM; also called light chain peptide antibody fusion of PC9#2
IC50 (read off the curve) [2]: ~400 pM | x change (against GLP1-Fc) (human GLP-1 receptor): 2.4 fold | x change of Kd, PC9#2_GLP1 against PC9#2 [3]: 2.7 fold

B3: HS9_DSB7_V19A (antibody)
VH: B2 VH with H52S, R57S, N59S, E62Q, K65Q, S66G
VL: HGEGTFTSDLSKQMEEECARLFIEWLKNGGPSSGAPPPGCGGGGGSGGGGSGGGGSADIQMTQSPSSLSASVGDRVTITCQASQDVKTAVAWYQQKPGKAPKLLIYSASYRYTGVPSRFSGSGSGTDFTFTISSLQPEDIATYYCQQRYSLWRTFGQGTKLEIK
binding result [4]: no binding (tested: 25 µg/mL)

B4: PC9#2 GLP-1 analogue heavy chain fusion (antibody, IgG1)
VH: HGEGTFTSDVSSYLEEQAAKEFIAWLVKGGGGGGGSGGGGSGGGGSAQVQLVQSGAEVKKPGASVKVSCKASGYTFTSYYMHWVRQAPGQGLEWMGEIHPSGGRTNYNEKFKSRVTMTRDTSTSTVYMELSSLRSEDTAVYYCARERPLYASDLWGQGTTVTVSS
VL: DIQMTQSPSSLSASVGDRVTITCKASQDVHTAVAWYQQKPGKAPKLLIYHASYRYTGVPSRFSGSGSGTDFTFTISSLQPEDIATYYCQQRYSLWRTFGQGTKLEIK
notes: IgG1-TM; descriptive name; also called heavy chain peptide antibody fusion of PC9#2
IC50 (read off the curve) [5]: ~700 pM

B5: PC9#6_DSB7_V19A (antibody, IgG1)
VH: QVQLVQSGAEVKKPGSSVKVSCKASGGTFNSHAISWVRQAPGQGLEWMGGINPILGIANYAQKFQGRVTITADESTSTAYMELSSLRSEDTAVYYCARHYEIQIGRYGMNVYYLMYRFASWGQGTLVTVSS
VL: HGEGTFTSDLSKQMEEECARLFIEWLKNGGPSSGAPPPGCGGGGGSGGGGSGGGGSADIQMTQSPSSLSASVGDRVTITCRASQGIRSALNWYQQKPGKAPKLLIYNGSTLQSGVPSRFSGSGSGTDFTLTISSLQPEDFAVYYCQQFDGDPTFGQGTKVEIK
notes: IgG1-TM
binding result [6]: no binding (tested: 100 ug/mL)
